The text below walks through data of article PMC5913336, “True equilibrium measurement of transcription factor-DNA binding affinities using automated polarization microscopy”.

The term Kd denotes the constant that tells how readily two partners part at equilibrium.

Holding throughout (settings): protein: recombinant; tags: N-terminal GST; blunt, G:G mismatch at position 6
The target of series [1] is T1, Bicoid DBD-GST (Bcd) (UniProt P09081 83-170).
T1 sequence: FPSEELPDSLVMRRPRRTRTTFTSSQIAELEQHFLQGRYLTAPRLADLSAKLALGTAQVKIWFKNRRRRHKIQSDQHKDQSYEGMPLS
The experiment in a line: competitive fluorescence anisotropy (HiP-FA); mean of replicates 92.598, 91.655; HiP-FA: 33 mM phosphate pH 7.0, 90 mM NaCl, 0.01% Tween 20, 0.1 mM DTT, 0.5% agarose; conventional titration and EMSA: 20 mM Tris-acetate pH 7.0, 50 nM (sic) NaCl, 0.01% Tween-20, 0.1 mM DTT.

Series [2] deals with T1, Bicoid DBD-GST (Bcd). The series is described as follows: competitive fluorescence anisotropy (HiP-FA); mean of replicates 2.804, 2.596; HiP-FA: 33 mM phosphate pH 7.0, 90 mM NaCl, 0.01% Tween 20, 0.1 mM DTT, 0.5% agarose; conventional titration and EMSA: 20 mM Tris-acetate pH 7.0, 50 nM (sic) NaCl, 0.01% Tween-20, 0.1 mM DTT.
The target in series [3] is T1, Bicoid DBD-GST (Bcd). The experiment in a line: competitive fluorescence anisotropy (HiP-FA); mean of replicates 133.924, 123.07; HiP-FA: 33 mM phosphate pH 7.0, 90 mM NaCl, 0.01% Tween 20, 0.1 mM DTT, 0.5% agarose; conventional titration and EMSA: 20 mM Tris-acetate pH 7.0, 50 nM (sic) NaCl, 0.01% Tween-20, 0.1 mM DTT.
Series [4] concerns the target T1, Bicoid DBD-GST (Bcd). The experiment in a line: competitive fluorescence anisotropy (HiP-FA); mean of replicates 63.883, 64.716; HiP-FA: 33 mM phosphate pH 7.0, 90 mM NaCl, 0.01% Tween 20, 0.1 mM DTT, 0.5% agarose; conventional titration and EMSA: 20 mM Tris-acetate pH 7.0, 50 nM (sic) NaCl, 0.01% Tween-20, 0.1 mM DTT.
Series [5] concerns the target T1, Bicoid DBD-GST (Bcd). The experiment in a line: competitive fluorescence anisotropy (HiP-FA); mean of replicates 29.656, 29.169; HiP-FA: 33 mM phosphate pH 7.0, 90 mM NaCl, 0.01% Tween 20, 0.1 mM DTT, 0.5% agarose; conventional titration and EMSA: 20 mM Tris-acetate pH 7.0, 50 nM (sic) NaCl, 0.01% Tween-20, 0.1 mM DTT. On the technique in general: In EMSA bound probe runs differently from free probe, usually more slowly.

In series [6] the target is T1, Bicoid DBD-GST (Bcd). The experiment in a line: competitive fluorescence anisotropy (HiP-FA); mean of replicates 3.661, 3.6795; HiP-FA: 33 mM phosphate pH 7.0, 90 mM NaCl, 0.01% Tween 20, 0.1 mM DTT, 0.5% agarose; conventional titration and EMSA: 20 mM Tris-acetate pH 7.0, 50 nM (sic) NaCl, 0.01% Tween-20, 0.1 mM DTT.
In series [7] the target is T1, Bicoid DBD-GST (Bcd). The series is described as follows: competitive fluorescence anisotropy (HiP-FA); mean of replicates 143.671, 148.3805; HiP-FA: 33 mM phosphate pH 7.0, 90 mM NaCl, 0.01% Tween 20, 0.1 mM DTT, 0.5% agarose; conventional titration and EMSA: 20 mM Tris-acetate pH 7.0, 50 nM (sic) NaCl, 0.01% Tween-20, 0.1 mM DTT.
For series [8], the target named is T1, Bicoid DBD-GST (Bcd). The series is described as follows: competitive fluorescence anisotropy (HiP-FA); mean of replicates 49.725, 45.8965; HiP-FA: 33 mM phosphate pH 7.0, 90 mM NaCl, 0.01% Tween 20, 0.1 mM DTT, 0.5% agarose; conventional titration and EMSA: 20 mM Tris-acetate pH 7.0, 50 nM (sic) NaCl, 0.01% Tween-20, 0.1 mM DTT.
Series [9] concerns the target T1, Bicoid DBD-GST (Bcd). The experiment in a line: competitive fluorescence anisotropy (HiP-FA); mean of replicates 3.19, 4.8725; HiP-FA: 33 mM phosphate pH 7.0, 90 mM NaCl, 0.01% Tween 20, 0.1 mM DTT, 0.5% agarose; conventional titration and EMSA: 20 mM Tris-acetate pH 7.0, 50 nM (sic) NaCl, 0.01% Tween-20, 0.1 mM DTT.
Series [10] addresses T1, Bicoid DBD-GST (Bcd). The experiment in a line: competitive fluorescence anisotropy (HiP-FA); mean of replicates 14.726, 13.4865; HiP-FA: 33 mM phosphate pH 7.0, 90 mM NaCl, 0.01% Tween 20, 0.1 mM DTT, 0.5% agarose; conventional titration and EMSA: 20 mM Tris-acetate pH 7.0, 50 nM (sic) NaCl, 0.01% Tween-20, 0.1 mM DTT.
The target in series [11] is T1, Bicoid DBD-GST (Bcd). The experiment in a line: competitive fluorescence anisotropy (HiP-FA); mean of replicates 45.665, 45.961; HiP-FA: 33 mM phosphate pH 7.0, 90 mM NaCl, 0.01% Tween 20, 0.1 mM DTT, 0.5% agarose; conventional titration and EMSA: 20 mM Tris-acetate pH 7.0, 50 nM (sic) NaCl, 0.01% Tween-20, 0.1 mM DTT.
Series [12] addresses T1, Bicoid DBD-GST (Bcd). The series is described as follows: competitive fluorescence anisotropy (HiP-FA); mean of replicates 8.014, 7.5595; HiP-FA: 33 mM phosphate pH 7.0, 90 mM NaCl, 0.01% Tween 20, 0.1 mM DTT, 0.5% agarose; conventional titration and EMSA: 20 mM Tris-acetate pH 7.0, 50 nM (sic) NaCl, 0.01% Tween-20, 0.1 mM DTT.
For series [13], the target named is T1, Bicoid DBD-GST (Bcd). The series is described as follows: competitive fluorescence anisotropy (HiP-FA); mean of replicates 8.833, 9.124; HiP-FA: 33 mM phosphate pH 7.0, 90 mM NaCl, 0.01% Tween 20, 0.1 mM DTT, 0.5% agarose; conventional titration and EMSA: 20 mM Tris-acetate pH 7.0, 50 nM (sic) NaCl, 0.01% Tween-20, 0.1 mM DTT.
Series [14] concerns the target T1, Bicoid DBD-GST (Bcd). The series is described as follows: competitive fluorescence anisotropy (HiP-FA); mean of replicates 49.501, 48.184; HiP-FA: 33 mM phosphate pH 7.0, 90 mM NaCl, 0.01% Tween 20, 0.1 mM DTT, 0.5% agarose; conventional titration and EMSA: 20 mM Tris-acetate pH 7.0, 50 nM (sic) NaCl, 0.01% Tween-20, 0.1 mM DTT.
In series [15] the target is T1, Bicoid DBD-GST (Bcd). The series is described as follows: competitive fluorescence anisotropy (HiP-FA); mean of replicates 19.276, 18.3665; HiP-FA: 33 mM phosphate pH 7.0, 90 mM NaCl, 0.01% Tween 20, 0.1 mM DTT, 0.5% agarose; conventional titration and EMSA: 20 mM Tris-acetate pH 7.0, 50 nM (sic) NaCl, 0.01% Tween-20, 0.1 mM DTT.
The target in series [16] is T1, Bicoid DBD-GST (Bcd). The experiment in a line: competitive fluorescence anisotropy (HiP-FA); mean of replicates 12.922, 12.5195; HiP-FA: 33 mM phosphate pH 7.0, 90 mM NaCl, 0.01% Tween 20, 0.1 mM DTT, 0.5% agarose; conventional titration and EMSA: 20 mM Tris-acetate pH 7.0, 50 nM (sic) NaCl, 0.01% Tween-20, 0.1 mM DTT.
Series [17] concerns the target T1, Bicoid DBD-GST (Bcd). The series is described as follows: competitive fluorescence anisotropy (HiP-FA); mean of replicates 94.126, 94.115; HiP-FA: 33 mM phosphate pH 7.0, 90 mM NaCl, 0.01% Tween 20, 0.1 mM DTT, 0.5% agarose; conventional titration and EMSA: 20 mM Tris-acetate pH 7.0, 50 nM (sic) NaCl, 0.01% Tween-20, 0.1 mM DTT.
Series [18] deals with T1, Bicoid DBD-GST (Bcd). The series is described as follows: competitive fluorescence anisotropy (HiP-FA); mean of replicates 28.134, 26.319; HiP-FA: 33 mM phosphate pH 7.0, 90 mM NaCl, 0.01% Tween 20, 0.1 mM DTT, 0.5% agarose; conventional titration and EMSA: 20 mM Tris-acetate pH 7.0, 50 nM (sic) NaCl, 0.01% Tween-20, 0.1 mM DTT.
Series [19] deals with T1, Bicoid DBD-GST (Bcd). The series is described as follows: competitive fluorescence anisotropy (HiP-FA); mean of replicates 13.103, 12.6865; HiP-FA: 33 mM phosphate pH 7.0, 90 mM NaCl, 0.01% Tween 20, 0.1 mM DTT, 0.5% agarose; conventional titration and EMSA: 20 mM Tris-acetate pH 7.0, 50 nM (sic) NaCl, 0.01% Tween-20, 0.1 mM DTT.

B1: Bcd competitor 22 (C8G) (dsDNA)
DNA 1: TCGACGGTAATGCCTA
DNA 2: TAGGCATTACGGTCGA
Turning to B1, the Kd in the series with Bicoid DBD-GST (Bcd) [1] stood at 92.1 nM.

B2: Bcd competitor 1 (C1G) (dsDNA)
DNA 1: TCGAGGGTAATCCCTA
DNA 2: TAGGGATTACGCTCGA
In the case of B2, in the series with Bicoid DBD-GST (Bcd) [2], the Kd turned out to be 2.7 nM.

B3: Bcd competitor 18 (A6T) (dsDNA)
DNA 1: TCGACGGTATTCCCTA
DNA 2: TAGGGAATACGGTCGA
As to B3, the Kd with Bicoid DBD-GST (Bcd) [3] amounted to 128 nM.

B4: Bcd competitor 13 (A5C) (dsDNA)
DNA 1: TCGACGGTCATCCCTA
DNA 2: TAGGGATGACGGTCGA
As to B4, the Kd in the series with Bicoid DBD-GST (Bcd) [4] was 64.3 nM.

B5: Bcd competitor 15 (A5T) (dsDNA)
DNA 1: TCGACGGTTATCCCTA
DNA 2: TAGGGATAACGGTCGA
As to B5, the Kd with Bicoid DBD-GST (Bcd) [5] amounted to 29.4 nM.

B6: Bcd competitor 28 (C10G) (dsDNA)
DNA 1: TCGACGGTAATCCGTA
DNA 2: TACGGATTACGGTCGA
On to B6, for which, in the series with Bicoid DBD-GST (Bcd) [6], the Kd is 3.67 nM.

B7: Bcd competitor 16 (A6C) (dsDNA)
DNA 1: TCGACGGTACTCCCTA
DNA 2: TAGGGAGTACGGTCGA
With B7, the Kd with Bicoid DBD-GST (Bcd) [7] stood at 146 nM.

B8: Bcd competitor 24 (C8A) (dsDNA)
DNA 1: TCGACGGTAATACCTA
DNA 2: TAGGTATTACGGTCGA
As to B8, the Kd in the series with Bicoid DBD-GST (Bcd) [8] was 47.8 nM.

B9: Bcd competitor 29 (C10T) (dsDNA)
DNA 1: TCGACGGTAATCCTTA
DNA 2: TAAGGATTACGGTCGA
For the molecule B9, the Kd in the series with Bicoid DBD-GST (Bcd) [9] came to 4.03 nM.

B10: Bcd competitor 25 (C9G) (dsDNA)
DNA 1: TCGACGGTAATCGCTA
DNA 2: TAGCGATTACGGTCGA
On to B10, for which the Kd with Bicoid DBD-GST (Bcd) [10] came out at 14.1 nM.

B11: Bcd competitor 17 (A6G) (dsDNA)
DNA 1: TCGACGGTAGTCCCTA
DNA 2: TAGGGACTACGGTCGA
B11: in the series with Bicoid DBD-GST (Bcd) [11], the Kd came out at 45.8 nM.

B12: Bcd competitor 26 (C9T) (dsDNA)
DNA 1: TCGACGGTAATCTCTA
DNA 2: TAGAGATTACGGTCGA
With B12, the Kd with Bicoid DBD-GST (Bcd) [12] was determined as 7.79 nM.

B13: Bcd competitor 14 (A5G) (dsDNA)
DNA 1: TCGACGGTGATCCCTA
DNA 2: TAGGGATCACGGTCGA
With B13, in the series with Bicoid DBD-GST (Bcd) [13], the Kd turned out to be 8.98 nM.

B14: Bcd competitor 21 (T7A) (dsDNA)
DNA 1: TCGACGGTAAACCCTA
DNA 2: TAGGGTTTACGGTCGA
Turning to B14, the dissociation constant Kd with Bicoid DBD-GST (Bcd) [14] worked out at 48.8 nM.

B15: Bcd competitor 20 (T7G) (dsDNA)
DNA 1: TCGACGGTAAGCCCTA
DNA 2: TAGGGCTTACGGTCGA
Consider B15, for which the Kd in the series with Bicoid DBD-GST (Bcd) [15] turned out to be 18.8 nM.

B16: Bcd competitor 27 (C9A) (dsDNA)
DNA 1: TCGACGGTAATCACTA
DNA 2: TAGTGATTACGGTCGA
Turning to B16, the Kd in the series with Bicoid DBD-GST (Bcd) [16] amounted to 12.7 nM.

B17: Bcd competitor 19 (T7C) (dsDNA)
DNA 1: TCGACGGTAACCCCTA
DNA 2: TAGGGGTTACGGTCGA
Consider B17, for which, in the series with Bicoid DBD-GST (Bcd) [17], the Kd was found to be 94.1 nM.

B18: Bcd competitor 23 (C8T) (dsDNA)
DNA 1: TCGACGGTAATTCCTA
DNA 2: TAGGAATTACGGTCGA
In the case of B18, the dissociation constant (Kd) in the series with Bicoid DBD-GST (Bcd) [18] was found to be 27.2 nM.

B19: Bcd competitor 12 (T4A) (dsDNA)
DNA 1: TCGACGGAAATCCCTA
DNA 2: TAGGGATTTCGGTCGA
B19: in the series with Bicoid DBD-GST (Bcd) [19], the Kd stood at 12.9 nM.
